Source: patent publication US10280442B2, “Mutant sucrose phosphorylases with improved glycosylation activity towards polyphenols” (Universiteit Gent, priority 2015, dated 2019)
Where a chain is given by its changes, count along the chain named. In names and notes the source's numbering stands.

Tests used:
[1] = tested on: Thermoanaerobacterium thermosaccharolyticum sucrose phosphorylase (TtSPP), EC 2.4.1.329, wild type; details: sucrose as glycosyl donor; Verhaeghe et al., 2014; cited from earlier work
[2] = biological target: Thermoanaerobacterium thermosaccharolyticum sucrose phosphorylase (TtSPP) variant R134V, SEQ ID No 2 (Thermoanaerobacterium thermosaccharolyticum, UniProt D9TT09, R134V); assay: Kinetics of resveratrol glycosylation by variant R134V (co-substrate sucrose); type: biochemical; details: 1M sucrose as co-substrate, pH 6.5, 55° C., 20% AMMOENG 101
Procedure: (§1) Kinetics of enzyme variants on resveratrol were determined in an aqueous system containing 20% ionic liquid AMMOENG 101 (kindly provided by Evonik Industries AG) to dissolve the acceptor in a range of 0 to 200 mM. At this concentration of ionic liquid, the kinetic parameters of the enzyme for its natural substrates are not affected. Reactions were started combining 8.5 μM heat purified enzymes, 1 M sucrose and the respective acceptor-concentration at 55° C. To determine the initial velocity, samples were taken every 15 minutes for one hour, and inactivated by ten-fold dilution in pure ethanol. Product formation was again quantified by TLC and ImageJ analysis, using purified resveratrol 3-alpha-glucoside as TLC-standard and a respective standard curve for calculations. Kinetic parameters were calculated by non-linear regression of the Michaelis-Menten equation with Sigma Plot v13.0. All experiments were performed in triplicate to obtain kinetic parameters as reproducible mean values±standard errors.

[3] = biological target: T1, Thermoanaerobacterium thermosaccharolyticum sucrose phosphorylase (TtSPP) variant R134A, SEQ ID No 1 (Thermoanaerobacterium thermosaccharolyticum, UniProt D9TT09, R134A); assay: Kinetics of resveratrol glycosylation by variant R134A (co-substrate sucrose); type: biochemical; details: 1M sucrose as co-substrate, pH 6.5, 55° C., 20% AMMOENG 101
T1 sequence (D9TT09 1-488 R134A): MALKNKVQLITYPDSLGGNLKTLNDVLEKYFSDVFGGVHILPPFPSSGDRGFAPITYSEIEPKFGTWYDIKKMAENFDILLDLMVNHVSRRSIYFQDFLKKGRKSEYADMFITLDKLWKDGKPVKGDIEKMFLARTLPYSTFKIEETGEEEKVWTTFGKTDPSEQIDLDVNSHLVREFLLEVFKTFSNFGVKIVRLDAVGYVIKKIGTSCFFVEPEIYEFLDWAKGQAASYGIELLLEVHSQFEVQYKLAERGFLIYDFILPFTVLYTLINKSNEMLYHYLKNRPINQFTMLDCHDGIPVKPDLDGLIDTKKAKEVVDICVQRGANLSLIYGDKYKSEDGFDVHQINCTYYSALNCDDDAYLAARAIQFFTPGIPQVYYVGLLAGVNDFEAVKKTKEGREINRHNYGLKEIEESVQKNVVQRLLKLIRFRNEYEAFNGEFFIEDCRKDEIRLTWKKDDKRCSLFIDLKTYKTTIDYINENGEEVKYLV
Procedure: as §1

[4] = substrate: Oc1ccc(/C=C/c2cc(O)cc(O)c2)cc1; assay: Kinetics of resveratrol glycosylation by variant R134T (co-substrate sucrose); type: biochemical, Thermoanaerobacterium thermosaccharolyticum; details: other: variant R134T, 1M sucrose as co-substrate, pH 6.5, 55° C., 20% AMMOENG 101
Procedure: as §1

[5] = Qualitative survey of promiscuity on diverse polyphenolic acceptors; type: biochemical; details: FIG. 2 B
Procedure: (§2) Heat-purified proteins (for tests on different acceptors) or crude protein extracts (for library screening) were incubated to a final concentration of 1 gL^−1 with 10 gL^−1 acceptor and 1 M sucrose in 50 mM MOPS-buffer at pH 6.5. Assays were performed at 37° C. in microtiterplates shaking at 200 rpm. The product amounts were evaluated after 16 h by semi-quantitative TLC-analysis: 1 μl of each sample solution was spotted on a Silica-plate (TLC-Silica gel 60 F254, Merck Millipore) and run in a solvent system from ethylacetate:methanol:water (30:5:4, v/v/v). Plates were oxidized with 10% sulphuric acid and spot intensities were determined using ImagaJ.

[6] = Screening assay, transglycosylation activity on resveratrol (semi-quantitative TLC); type: biochemical; details: 1 gL^−1 enzyme, 10 gL^−1 acceptor, 1 M sucrose, pH 6.5, 37° C., 16 h; FIG. 1
Procedure: as §2

[7] = Production of resveratrol 3-alpha-glucoside in aqueous system, followed by HPLC; type: biochemical; details: 1 M sucrose, saturated suspension of 10 g·L^−1 resveratrol, 24 h, 55° C., pH 6.5
Procedure: Up-scaling of the transglycosylation reactions on resveratrol was performed up to 400 ml volumes. Reactors were stirred continuously at 55° C. for 24 h, and contained 1 M sucrose, 1 mgL^−1 enzyme and 10 gL^−1 of resveratrol (suspension) in 50 mM MOPS-buffer pH 6.5. Thanks to the quantitative conversion of resveratrol, its glucoside could be simply isolated by repeated ethylacetate extractions to a purity of >90%. The solvent was evaporated and the dried product analyzed by HPLC to determine purity and yield. To verify the identity of the compound by NMR and to produce the standards (TLC, H PLC), further purification was performed by column chromatography on silica gel (EtOAC:MeOH:H2O; 30:5:4; v/v/v) as described earlier (De Winter et al, 2013).
Reactions were followed for 24 h. […] Supernatants were filtered through a 0.2 μm polystyrol filter, diluted in DMSO and analyzed by HPLC using a polar Waters XBridge Amide column (250×4.6 mm, 3.5 μm) and an Alltech 2000ES ELSD-detector (40° C., gas flow 1.5 Lmin^−1), supplied with a gradient mixture of eluent A (acetonitrile, 0.2% triehtylamine) and eluent B (0.2% triethylamine): 90% solvent A (6 min), 10-25% solvent B (stepwise, 3% min^−1), 25% solvent B (20 min) and 90% solvent A (10 min). Concentrations of ingredients and respective yields were calculated according to standards of fructose, glucose and resveratrol 3-alpha-glucoside.

[8] = Screening assay, transglycosylation activity on quercetin (semi-quantitative TLC); type: biochemical; details: 1 gL^−1 enzyme, 10 gL^−1 acceptor, 1 M sucrose, pH 6.5, 37° C., 16 h; FIG. 2 A
Procedure: as §2

Thermoanaerobacterium thermosaccharolyticum sucrose phosphorylase (TtSPP) variant R134V, SEQ ID No 2, sequence (D9TT09 whole entry R134V): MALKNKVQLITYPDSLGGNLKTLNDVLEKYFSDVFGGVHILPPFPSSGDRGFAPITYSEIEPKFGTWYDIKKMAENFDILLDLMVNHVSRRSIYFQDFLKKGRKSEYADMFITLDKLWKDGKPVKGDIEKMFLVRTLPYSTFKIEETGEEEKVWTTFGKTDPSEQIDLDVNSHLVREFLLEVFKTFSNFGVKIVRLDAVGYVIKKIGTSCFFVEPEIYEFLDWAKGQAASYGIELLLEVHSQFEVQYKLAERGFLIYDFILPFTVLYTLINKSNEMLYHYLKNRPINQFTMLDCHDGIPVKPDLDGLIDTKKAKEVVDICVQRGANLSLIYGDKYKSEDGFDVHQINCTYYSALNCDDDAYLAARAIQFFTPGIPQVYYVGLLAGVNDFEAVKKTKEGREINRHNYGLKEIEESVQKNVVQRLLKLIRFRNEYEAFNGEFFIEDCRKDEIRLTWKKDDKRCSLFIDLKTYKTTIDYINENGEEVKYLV

Molecule: OC[C@H]1O[C@@](CO)(O[C@H]2O[C@H](CO)[C@@H](O)[C@H](O)[C@H]2O)[C@@H](O)[C@@H]1O [sucrose]
- Km [1]: 77 mM

Molecule: Oc1ccc(/C=C/c2cc(O)cc(O)c2)cc1 [resveratrol, trans-3,4′,5-trihydroxystilbene]
- kcat [2]: 0.45 ± 0.02 s⁻¹
- kcat [3]: 2.36 ± 0.25 s⁻¹

B1: Thermoanaerobacterium thermosaccharolyticum sucrose phosphorylase (TtSPP) variant R134T, SEQ ID No 3 (Thermoanaerobacterium thermosaccharolyticum DSM 571; … (protein)
chain: T1 sequence (D9TT09 1-488 R134A) with A134T
- Km [4]: 56 ± 8 mM
- kcat [4]: 0.08 ± 0.004 s⁻¹
- kcat/Km [4]: 1.4 ± 0.2 M⁻¹ s⁻¹

B2: R134A: variant R134A of TtSPP sucrose phosphorylase from Thermoanaerobacterium thermosaccharolyticum (protein)
chain: T1 sequence (D9TT09 1-488 R134A)
modifications: mutant of sucrose phosphorylase of bacterium Thermoanaerobacterium thermosaccharolyticum
- activity on flavonoids and phenoxyphenols (acceptor promiscuity) [5]: displayed activity on structures from all five major classes of flavonoids
- transglycosylation activity on resveratrol [6]: retained more than half of its activity on resveratrol
- resveratrol 3-alpha-glucoside produced [7]: 17.1 ± 0.6 g/L
- conversion of resveratrol (acceptor) ([7]; FIG. 3): complete conversion of the acceptor
- transglycosylation activity on quercetin [8]: significant amounts of transglycosylation product could be detected

B3: BaSP: wild-type thermostable sucrose phosphorylase of Bifidobacterium adolescentis (protein, UniProt A0ZZH6 1-504, looked up)
Sucrose phosphorylase: MKNKVQLITYADRLGDGTIKSMTDILRTRFDGVYDGVHILPFFTPFDGADAGFDPIDHTKVDERLGSWDDVAELSKTHNIMVDAIVNHMSWESKQFQDVLAKGEESEYYPMFLTMSSVFPNGATEEDLAGIYRPRPGLPFTHYKFAGKTRLVWVSFTPQQVDIDTDSDKGWEYLMSIFDQMAASHVSYIRLDAVGYGAKEAGTSCFMTPKTFKLISRLREEGVKRGLEILIEVHSYYKKQVEIASKVDRVYDFALPPLLLHALSTGHVEPVAHWTDIRPNNAVTVLDTHDGIGVIDIGSDQLDRSLKGLVPDEDVDNLVNTIHANTHGESQAATGAAASNLDLYQVNSTYYSALGCNDQHYIAARAVQFFLPGVPQVYYVGALAGKNDMELLRKTNNGRDINRHYYSTAEIDENLKRPVVKALNALAKFRNELDAFDGTFSYTTDDDTSISFTWRGETSQATLTFEPKRGLGVDNTTPVAMLEWEDSAGDHRSDDLIANPPVVA
- transglycosylation activity on resveratrol [6]: Neither of these enzymes display significant activity on resveratrol
- transglycosylation activity on quercetin [8]: neither had activity on quercetin
